According to patent publication US8541175B2, “Detection of molecular interactions using a reduced affinity enzyme complementation reporter system” (The Board of Trustees of the Leland Stanford Junior …, priority 2006, dated 2013):

Assays:
Type in all cases: cell-based
EGFR and ErbB2 = EGFR and ErbB2 (Homo sapiens, UniProt P04626); assay: Low affinity β-gal complementation, EGFR-ErbB2 heterodimerization; conditions: for loss of β-gal activity (heterodimer dissociation) after removal of ligand: EGFRω-ErbB2α* cells, ligand added, then washout
Excerpt: To perform a quantitative comparison of the different pairs of receptors, receptor expression level in cells was controlled, as the amount of β-gal fusion protein affects β-gal enzyme activity (FIG. 2). […] These cells were engineered to express either the ErbB2-ω or the EGFR-ω fusion proteins. Each of the ω-expressing parental cell lines were then split and transduced with each of three constructs encoding different α-fusion proteins, EGFR-α*, ErbB2-α*, and ErbB3-α*. Because the cells were generated from the same parental line, they expressed equivalent amounts of ω. To allow measurement of α* chimeric protein expression levels, YFP was included in each construct, between the ErbB receptor and the α*.

[1] = target: EGFR homodimers in the presence of excess ErbB2 (Homo sapiens, UniProt P04626); assay: EGFR homodimerization in EGFRα*-EGFRω cell line overexpressing wild-type ErbB2; conditions: EGFRα*-EGFRω cells overexpressing wild-type ErbB2; increasing concentrations of EGF
Excerpt: As a test of this hypothesis, the wildtype ErbB2 lacking a β-gal fragment was overexpressed in the EGFRα*-EGFRω cell line. […] This disruption allowed EGFRα* and EGFRω to interact and homodimerize.

ErbB2 homodimers = target: T1, ErbB2 homodimers (Homo sapiens, UniProt P04626); assay: Low affinity β-gal complementation, ErbB2ω-ErbB2α* homodimerization; conditions: ligand for 45 min; 20,000 cells per well
T1 construct: ErbB2 (aa 1-686); expressed in transfected cells; host or cells: C2C12 cells, retroviral transduction
Excerpt: To perform a quantitative comparison of the different pairs of receptors, receptor expression level in cells was controlled, as the amount of β-gal fusion protein affects β-gal enzyme activity (FIG. 2). To this end, two parental cell lines were constructed using C2C12 cells in which ErbB family members are expressed at very low levels (S. Corti et al., Exp Cell Res 268, 36 (Aug. 1, 2001)). These cells were engineered to express either the ErbB2-ω or the EGFR-ω fusion proteins. Each of the ω-expressing parental cell lines were then split and transduced with each of three constructs encoding different α-fusion proteins, EGFR-α*, ErbB2-α*, and ErbB3-α*. Because the cells were generated from the same parental line, they expressed equivalent amounts of ω. To allow measurement of α* chimeric protein expression levels, YFP was included in each construct, between the ErbB receptor and the α*. […] YFP was imaged by confocal microscopy to ensure that the receptor fusion proteins were appropriately localized to the plasma membrane, which is essential to their function (FIG. 3).
Cells were returned to a 37° C.
Isoproterenol, propranolol and rapamycin were from Sigma.

Row | Substance | loss of β-gal activity (heterodimer dissociation) after removal of ligand (EGFR and ErbB2) | EGFRω-ErbB2α* heterodimer formation over time (enzyme activity) (EGFR and ErbB2; 100 ng/ml EGF) | ligand-induced heterodimerization of EGFR with ErbB2 (β-gal activity) (EGFR and ErbB2; ligand for 45 min, 20,000 cells per well) | β-gal activity in response to EGF, no antibody [1] | response of ErbB2ω-ErbB2α* cells to ligand (β-gal activity) (ErbB2 homodimers)
1 | TGF-α: recombinant human TGF-α from Peprotech, EGFR ligand | signal decayed more rapidly following TGF-α than after EGF exposure |  |  |  | 
2 | EGF: recombinant human EGF from Peprotech, ligand that binds the EGFR | β-gal activity decreased over time | time-dependent increase in enzyme activity | heterodimerization of EGFR with ErbB2 | failed to stimulate β-gal activity | not responsive
